The DeepSol protein solubility set

Test: soluble on expression in E. coli; label from the status in PepcDB or PDB records

| Sequence | soluble on expression in E. coli |
| --- | --- |
| GSHMDYNKRSSVSTVPNAAPIRVGFVGLNAAKGWAIKTHYPAILQLSSQFQITALYSPKIETSIATIQRLKLSNATAFPTLESFASSSTIDMIVIAIQVASHYEVVMPLLEFSKNNPNLKYLFVEWALACSLDQAESIYKAAAERGVQTIISLQGRKSPYILRAKELISQGYIGDINSIEIAGNGGWYGYERPVKSPKYIYEIGNGVDLVTTTFGHTIDILQYMTSSYFSRINAMVFNNIPEQELIDERGNRLGQRVPKTVPDHLLFQGTLLNGNVPVSCSFKGGKPTKKFTKNLVIDIHGTKGDLKLEGDAGFAEISNLVLYYSGTRANDFPLANGQQAPLDPGYDAGKEIMKVYHLRNYNAIVGNIHRLYQSISDFHFNTKKIPELPSQFVMQGFDFEGFPTLMDALILHRLIESVYKSNMMGSTLNVSNISHYSL | soluble |
| GSHMGDKEKETLFKDYLNLIVVKMTEWIGNLEKAEFDVFLERSTPPHSDSDGLLFLDGTKTCFQMFTQQVEVAAGTNQAKILVGVVERFSDLLTKRQKNWISKISEEIKKQINYNHKYDIDPESITPEDECPGGLVEYLIAVSNDQMKAADYAVAISSKYGKLVSKVYEKQITNHLEGTLDGFAEVAQCSSLGLITLMFDDLRKPYQEIFSKTWYMGSQAQQIADTLDEYLLDIKPQMNSVLFVNFIDNVIGETIIKFLTALSFEHSFKNKNNKFLEAMKRDFEIFYQLFVKVLDGNESKDTLITQNFTVMEFFMDLSCEPIDSILDIWQKYLEVYWDSRIDLLVGILKCRKDVSSSERKKIVQQATEMLHEYRRNMEANGVDREPTLMRRFVLEFEKQ | soluble |
| GSHMKVDITIKIQRDGQEIEIDIRVSTGKELERALQELEKALARAGARNVQITISAENDEQAKELLELIARLLQKLGYKDINVRVNGTEVKIEVRV | soluble |
| GSHMLETEDVVRARDAHLRSILDTVPDATVVSATDGTIVSFNAAAVRQFGYAEEEVIGQNLRILMPEPYRHEHDGYLQRYMATGEKRIIGIDRVVSGQRKDGSTFPMKLAVGEMRSGGERFFTGFIRDLT | soluble |
| GSHMLPSCKEDEYPVGSECCPKCSPGYRVKEACGELTGTVCEPCPPGTYIAHLNGLSKCLQCQMCDPAMGLRASRNCSRTENAVCGCSPGHFCIVQDGDHCAACRAYA | soluble |
| GSHMNPLTQAVPKCQRWEKLQNSRCVCKMPYECGPSLDVCAQDERSKRILPLTVCKMHVLHCQGRNYTLTGRDSCTLPASAEKACGACPLWGKCDAESSKCVCREASECEEEGFSICVEVNGKEQTMSECEAGALRCRGQSISVTSIRPCAAETQ | soluble |
| GSHMSAMAESKVLVKGTPFNKPVIKGKLENNYDMSQDEVSLLLFLKTHGGKIPLYRIKNETGLKDPESVLKNLMDYGFALEDKERLGEKIVLTSEGEFVAQAIRVRDEELRLKEMKQKKNVNRSSAPPQ | soluble |
| GSHMSLDNKPIMRVASIDIGSYSVRLTIAQIKDGKLSIILERGRITSLGTKVKETGRLQEDRIEETIQVLKEYKKLIDEFKVERVKAVATEAIRRAKNAEEFLERVKREVGLVVEVITPEQEGRYAYLAVAYSLKPEGEVCVVDQGGGSTEYVFGKGYKVREVISLPIGIVNLTETFFKQDPPTEEEVKRFFEFLEKELSKVKKPVDTIVGLGGTITTLAALEYNVYPYDPQKVHGKVLTYGQIKKWFDTFKEIPSEERSKRFRQVEDRRAKVILAGIGIFLKTLEIFEKDCLIVSDWGLREGVLVSEVLKENHS | soluble |
| GSHMSQGSGEGEGVQLTAAQELMIQQLVAAQLQCNKRSFSDQPKVTPWPLGADPQSRDARQQRFAHFTELAIISVQEIVDFAKQVPGFLQLGREDQIALLKASTIEIMLLETARRYNHETECITFLKDFTYSKDDFHRAGLQVEFINPIFEFSRAMRRLGLDDAEYALLIAINIFSADRPNVQEPGRVEALQQPYVEALLSYTRIKRPQDQLRFPRMLMKLVSLRTLSSVHSEQVFALRLQDKKLPPLLSEIWDVHE | soluble |
| GSKNCPDPELCRQSFRRFCYQEVSGPQEALSQLRQLCRQWLQPELHTKEQILELLVMEQFLTILPEEIQARVRHRCLMSSKEIVTLVEDFHRASKKPK | soluble |
| GSMAAAGNKSINAKLVLLGDVGAGKSSLVLRFVKDQFVEFQESTIGAAFFSQTLAVNDATVKFEIWDTAGQERYHSLAPMYYRGAAAAIIVFDVTNQASFERAKKWVQELQAQGNPNMVMALAGNKSDLLDARKVTAEDAQTYAQENGLFFMETSAKTATNVKEIFYEIARRLPRVQPTEN | soluble |
| GSMFTPKPPQDSAVIKAGYCVKQGAVMKNWKRRYFQLDENTIGYFKSELEKEPLRVIPLKEVHKVQECKQSDIMMRDNLFEIVTTSRTFYVQADSPEEMHSWIKAVSGAIVAQRGPGRSASSEHP | soluble |
| GSMTHYDVVVLGAGPGGYVAAIRAAQLGLSTAIVEPKYWGGVCLNVGCIPSKALLRNAELVHIFTKDAKAFGISGEVTFDYGIAYDRSRKVAEGRVAGVHFLMKKNKITEIHGYGTFADANTLLVDLNDGGTESVTFDNAIIATGSSTRLVPGTSLSANVVTYEEQILSRELPKSIIIAGAGAIGMEFGYVLKNYGVDVTIVEFLPRALPNEDADVSKEIEKQFKKLGVTILTATKVESIADGGSQVTVTVTKDGVAQELKAEKVLQAIGFAPNVEGYGLDKAGVALTDRKAIGVDDYMRTNVGHIYAIGDVNGLLQLAHVAEAQGVVAAETIAGAETLTLGDHRMLPRATFCQPNVASFGLTEQQARNEGYDVVVAKFPFTANAKAHGVGDPSGFVKLVADAKHGELLGGHLVGHDVAELLPELTLAQRWDLTASELARNVHTHPTMSEALQECFHGLVGHMINF | soluble |
| GSPEETLVIALYDYQTNDPQELALRCDEEYYLLDSSEIHWWRVQDKNGHEGYAPSSYLVEKSP | soluble |
| GSRIAKRTAINKTKKADVKAIADAWQINGEKELELLQQIAQKPGALRILNHSLRLAAMTAHGKGERVNEDYLRQAFRELDLDVDISTLLRN | soluble |
| GSSGSSGQFSDMRISINQTPGKSLDFGFTIKWDIPGIFVASVEAGSPAEFSQLQVDDEIIAINNTKFSYNDSKEWEEAMAKAQETGHLVMDVRRYGK | soluble |
| GSSLASQGQNLSTVLANLTPEQQKNVLGERLYNHIVAINPAAAAKVTGMLLEMDNGEILNLLDTPGLLDAKVQEALEVLNRHMNV | soluble |
| GSTAMATTMEQEICAHSMTFEECPKCSALQYRNGFYLLKYDEEWYPEELLTDGEDDVFDPDLDMEVVFETQ | soluble |
| GSVSMSGGFLRDDHLEFALHLHRRLAEAVPDGEVIWSPYSVACALGVLAAGARATTRTELTTLLGTDPAPLLAALDRAVTDSPDLASRTVLWVSADVPVRSSFRATMHDRPDSDVRTADFRTNPEGVRATVNADIADATRGMIRELLPQGAVTPDLRAILTNALWAKARWTTPFEAHLTRAGTFRTPRGPKRVPFMHRTKTMPYATARGWRMVTLHAHDELAVDVLLPPGTNAAAVPTAPLLTALHRRSASTSVELALPRFELTQPHQLVEVLAEAGVRTLFTASADLSGISTVPLYVDTVIHQARLRVDERGAEGAAATAAMMLLAGAMPPRRTIRFSVDRPFHIVVRRRGAILFLGSIADPHDPGPAQ | soluble |
| GTAGKVIKCKAAVLWEQKQPFSIEEIEVAPPKTKEVRIKILATGICRTDDHVIKGTMVSKFPVIVGHEATGIVESIGEGVTTVKPGDKVIPLFLPQCRECNACRNPDGNLCIRSDITGRGVLADGTTRFTCKGKPVHHFMNTSTFTEYTVVDESSVAKIDDAAPPEKVCLIGCGFSTGYGAAVKTGKVKPGSTCVVFGLGGVGLSVIMGCKSAGASRIIGIDLNKDKFEKAMAVGATECISPKDSTKPISEVLSEMTGNNVGYTFEVIGHLETMIDALASCHMNYGTSVVVGVPPSAKMLTYDPMLLFTGRTWKGCVFGGLKSRDDVPKLVTEFLAKKFDLDQLITHVLPFKKISEGFELLNSGQSIRTVLTF | soluble |
| GTKASKSGVPVTQTQTAGADTTAEKCKGKGEKDCKSPDCKWEGGTCKD | soluble |
| GTPLPENENMSLYQSRVTVGELEMLASRFVGRTRVRNAFAQYWSQQRETLLPNQQASSALIRHTERVLAGVFGASSAKLVLTSALQGRKMQLEEVATIVDEASELYDFSRGLLQGAIEHIG | not soluble |
